The record followed here is article PMC8316566.

This experiment deals with T1, MRM3 (human (endogenous in HEK293)), Q9HC36.
T1 chain: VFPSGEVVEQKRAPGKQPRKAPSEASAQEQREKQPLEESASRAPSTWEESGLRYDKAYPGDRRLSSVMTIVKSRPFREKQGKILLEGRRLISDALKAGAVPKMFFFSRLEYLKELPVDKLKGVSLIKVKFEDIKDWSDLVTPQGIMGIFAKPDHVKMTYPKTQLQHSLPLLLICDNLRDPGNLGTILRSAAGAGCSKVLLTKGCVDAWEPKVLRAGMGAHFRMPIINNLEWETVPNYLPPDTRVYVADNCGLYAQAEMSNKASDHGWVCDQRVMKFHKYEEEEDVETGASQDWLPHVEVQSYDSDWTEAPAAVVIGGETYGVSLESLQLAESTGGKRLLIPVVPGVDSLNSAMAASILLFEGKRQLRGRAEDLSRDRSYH
As to the kind of experiment: cryo-EM structure; native 39S pre-mitoribosomal particles isolated by anti-Flag affinity purification (MALSU1 or GTPBP10 bait; state 1 also with particles from a uL17 bait) from HEK293 cells; single-particle analysis, average resolutions between 3.1 Å and 5.7 Å; factors fitted as rigid-body homology models or crystal structures. The note with it: remark: other sources report otherwise.

The term stoichiometry N denotes the number of molecules, sites or subunits per partner or assembly.

B1: MRM3, Q9HC36 41-420 (natural protein)
chain: VFPSGEVVEQKRAPGKQPRKAPSEASAQEQREKQPLEESASRAPSTWEESGLRYDKAYPGDRRLSSVMTIVKSRPFREKQGKILLEGRRLISDALKAGAVPKMFFFSRLEYLKELPVDKLKGVSLIKVKFEDIKDWSDLVTPQGIMGIFAKPDHVKMTYPKTQLQHSLPLLLICDNLRDPGNLGTILRSAAGAGCSKVLLTKGCVDAWEPKVLRAGMGAHFRMPIINNLEWETVPNYLPPDTRVYVADNCGLYAQAEMSNKASDHGWVCDQRVMKFHKYEEEEDVETGASQDWLPHVEVQSYDSDWTEAPAAVVIGGETYGVSLESLQLAESTGGKRLLIPVVPGVDSLNSAMAASILLFEGKRQLRGRAEDLSRDRSYH
B1 returned a stoichiometry N of 2.
